The values that follow come from patent US8852956.

In test [1] the target is Rap55, T^2-ELISA construct, cell-free expressed from PCR product with N-terminal VSV-G and C-terminal HSV epitope tags (UniProt Q8ND56).
Test [2] shares this target. Briefly: dual-reporter T^2-ELISA, against the single-reporter HRP control. In general terms: An ELISA detects its analyte on a solid surface through an enzyme-linked reagent.

Values joined by “and” are separate entries in the source; they are usually repeats but may differ in a detail not shown here. Identical values can stand only once.

Chain of UniProt Q8ND56 (Q8ND56 1-463, tags or fused parts left off): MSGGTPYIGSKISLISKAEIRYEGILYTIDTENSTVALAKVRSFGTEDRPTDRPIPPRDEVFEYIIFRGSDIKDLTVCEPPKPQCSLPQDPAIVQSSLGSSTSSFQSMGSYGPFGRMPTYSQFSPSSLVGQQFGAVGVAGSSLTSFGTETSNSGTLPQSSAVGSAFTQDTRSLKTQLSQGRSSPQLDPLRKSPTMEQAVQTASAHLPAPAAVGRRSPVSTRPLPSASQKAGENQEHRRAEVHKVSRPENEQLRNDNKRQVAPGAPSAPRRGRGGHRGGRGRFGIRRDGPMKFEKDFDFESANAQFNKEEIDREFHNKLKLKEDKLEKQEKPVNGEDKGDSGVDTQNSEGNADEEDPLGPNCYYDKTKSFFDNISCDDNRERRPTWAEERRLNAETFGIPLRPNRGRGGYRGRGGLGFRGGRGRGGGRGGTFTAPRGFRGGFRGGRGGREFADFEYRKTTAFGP

Regarding “anti-VSV-G horseradish peroxidase (HRP) labeled monoclonal antibody (Clone P5D4, Roche Applied Science)”, the Signal to Noise in test [1] was 698 and 760. Also, the Percent of Control (HRP detection, VSV-G tag) in test [2] stood at 96.5%.
